Experimental data as given in IntAct's records for PubMed 18020948.

B1: Integrin alpha-L (Homo sapiens), P20701 (parent)
chain: MKDSCITVMAMALLSGFFFFAPASSYNLDVRGARSFSPPRAGRHFGYRVLQVGNGVIVGAPGEGNSTGSLYQCQSGTGHCLPVTLRGSNYTSKYLGMTLATDPTDGSILACDPGLSRTCDQNTYLSGLCYLFRQNLQGPMLQGRPGFQECIKGNVDLVFLFDGSMSLQPDEFQKILDFMKDVMKKLSNTSYQFAAVQFSTSYKTEFDFSDYVKRKDPDALLKHVKHMLLLTNTFGAINYVATEVFREELGARPDATKVLIIITDGEATDSGNIDAAKDIIRYIIGIGKHFQTKESQETLHKFASKPASEFVKILDTFEKLKDLFTELQKKIYVIEGTSKQDLTSFNMELSSSGISADLSRGHAVVGAVGAKDWAGGFLDLKADLQDDTFIGNEPLTPEVRAGYLGYTVTWLPSRQKTSLLASGAPRYQHMGRVLLFQEPQGGGHWSQVQTIHGTQIGSYFGGELCGVDVDQDGETELLLIGAPLFYGEQRGGRVFIYQRRQLGFEEVSELQGDPGYPLGRFGEAITALTDINGDGLVDVAVGAPLEEQGAVYIFNGRHGGLSPQPSQRIEGTQVLSGIQWFGRSIHGVKDLEGDGLADVAVGAESQMIVLSSRPVVDMVTLMSFSPAEIPVHEVECSYSTSNKMKEGVNITICFQIKSLIPQFQGRLVANLTYTLQLDGHRTRRRGLFPGGRHELRRNIAVTTSMSCTDFSFHFPVCVQDLISPINVSLNFSLWEEEGTPRDQRAQGKDIPPILRPSLHSETWEIPFEKNCGEDKKCEANLRVSFSPARSRALRLTAFASLSVELSLSNLEEDAYWVQLDLHFPPGLSFRKVEMLKPHSQIPVSCEELPEESRLLSRALSCNVSSPIFKAGHSVALQMMFNTLVNSSWGDSVELHANVTCNNEDSDLLEDNSATTIIPILYPINILIQDQEDSTLYVSFTPKGPKIHQVKHMYQVRIQPSIHDHNIPTLEAVVGVPQPPSEGPITHQWSVQMEPPVPCHYEDLERLPDAAEPCLPGALFRCPVVFRQEILVQVIGTLELVGEIEASSMFSLCSSLSISFNSSKHFHLYGSNASLAQVVMKVDVVYEKQMLYLYVLSGIGGLLLLLLIFIVLYKVGFFKRNLKEKMEAGRGVPNGIPAEDSEQLASGQEAGDPGCLKPLHEKDSESGGGKD
partner: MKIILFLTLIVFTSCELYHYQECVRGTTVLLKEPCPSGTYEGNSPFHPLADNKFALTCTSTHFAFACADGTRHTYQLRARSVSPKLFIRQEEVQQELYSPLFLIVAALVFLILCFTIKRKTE

Variants of: B1
Conditions: with ns7a_sars ns7a

| Variant | effect of a mutation on the interaction |
| --- | --- |
| K288C;K293C | increasing interaction strength |
